This is an account of results in FireProtDB (doi:10.1021/bi00185a025).

B1: Chemotaxis protein CheY, P0AE67 (parent)
chain: MADKELKFLVVDDFSTMRRIVRNLLKELGFNNVEEAEDGVDALNKLQAGGYGFVISDWNMPNMDGLELLKTIRADGAMSALPVLMVTAEAKKENIIAAAQAGASGYVVKPFTAATLEEKLNKIFEKLGM

The data set covers variants of B1. The note with it: Escherichia coli (strain K12); pH 7; 25 °C; Urea; CD; Sodium phosphate 5 mM; reversible: yes; structure 1CEY; whole UniProt chain shown.

With P110G F14N, the “ddG of mutation (higher = less stable)” value is -1.1 kcal/mol, the denaturant m value is 1.6 kcal/mol/M, the “denaturant midpoint (higher = more stable)” value is 3.94 M and the unfolding free energy amounted to 6.3 kcal/mol.
For the variant F14N, the “ddG of mutation (higher = less stable)” value is -2.9 kcal/mol, the denaturant m value was determined as 1.8 kcal/mol/M, the “denaturant midpoint (higher = more stable)” value amounted to 4.5 M and the unfolding free energy turned out to be 8.1 kcal/mol.
